Measurements: paper doi:10.1101/416032

Target: BG505.SOSIP.664-AviB (HIV-1 (clade A, BG505)) (UniProt Q2N0S6)
Assay: BLI

Substance	Kd [nM]
BF520.1 matureVHnaïveVK mAb (antibody)	8.95
BF520.1 naïveVHmatureVK mAb (antibody)	< 0.001
